# Data published in IntAct's records for PubMed 29997244.
# B1: DnaJ homolog subfamily C member 5 (Homo sapiens), Q9H3Z4 (parent)
# chain: MADQRQRSLSTSGESLYHVLGLDKNATSDDIKKSYRKLALKYHPDKNPDNPEAADKFKEINNAHAILTDATKRNIYDKYGSLGLYVAEQFGEENVNTYFVLSSWWAKALFVFCGLLTCCYCCCCLCCCFNCCCGKCKPKAPEGEETEFYVSPEDLEAQLQSDEREATDTPIVIQPASATETTQLTADSHPSYHTDGFN
# B2: DnaJ homolog subfamily C member 5 (Homo sapiens), Q9H3Z4 (parent)
# chain: B1 chain
# partner: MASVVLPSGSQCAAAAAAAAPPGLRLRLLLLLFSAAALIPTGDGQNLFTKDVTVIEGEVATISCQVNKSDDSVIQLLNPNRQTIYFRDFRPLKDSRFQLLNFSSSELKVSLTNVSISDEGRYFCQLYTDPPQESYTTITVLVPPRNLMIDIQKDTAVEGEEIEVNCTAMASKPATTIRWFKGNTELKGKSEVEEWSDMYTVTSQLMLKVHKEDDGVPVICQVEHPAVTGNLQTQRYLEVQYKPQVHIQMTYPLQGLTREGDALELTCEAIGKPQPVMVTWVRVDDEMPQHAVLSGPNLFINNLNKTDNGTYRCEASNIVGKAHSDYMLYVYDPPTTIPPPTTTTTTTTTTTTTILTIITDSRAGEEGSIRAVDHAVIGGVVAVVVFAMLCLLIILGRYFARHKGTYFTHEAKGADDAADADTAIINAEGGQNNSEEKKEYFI
# B3: DnaJ homolog subfamily C member 5 (Homo sapiens), Q9H3Z4 (parent)
# chain: B1 chain
# partner: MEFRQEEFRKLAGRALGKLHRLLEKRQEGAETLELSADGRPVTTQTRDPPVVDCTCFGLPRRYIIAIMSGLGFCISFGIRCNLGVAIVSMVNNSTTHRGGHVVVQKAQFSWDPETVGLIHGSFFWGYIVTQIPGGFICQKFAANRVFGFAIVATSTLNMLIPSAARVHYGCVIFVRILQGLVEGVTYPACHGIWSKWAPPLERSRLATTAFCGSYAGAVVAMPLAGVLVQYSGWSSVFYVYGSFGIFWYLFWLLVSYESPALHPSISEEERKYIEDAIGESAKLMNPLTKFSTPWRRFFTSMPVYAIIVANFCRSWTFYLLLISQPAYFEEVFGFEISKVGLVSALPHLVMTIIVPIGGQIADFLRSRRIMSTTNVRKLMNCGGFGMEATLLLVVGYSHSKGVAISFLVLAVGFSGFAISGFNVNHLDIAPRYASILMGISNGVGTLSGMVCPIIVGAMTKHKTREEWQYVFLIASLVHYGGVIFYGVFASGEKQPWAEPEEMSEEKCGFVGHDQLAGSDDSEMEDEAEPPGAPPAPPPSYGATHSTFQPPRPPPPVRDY
# B4: DnaJ homolog subfamily C member 5 (Homo sapiens), Q9H3Z4 (parent)
# chain: B1 chain
# partner: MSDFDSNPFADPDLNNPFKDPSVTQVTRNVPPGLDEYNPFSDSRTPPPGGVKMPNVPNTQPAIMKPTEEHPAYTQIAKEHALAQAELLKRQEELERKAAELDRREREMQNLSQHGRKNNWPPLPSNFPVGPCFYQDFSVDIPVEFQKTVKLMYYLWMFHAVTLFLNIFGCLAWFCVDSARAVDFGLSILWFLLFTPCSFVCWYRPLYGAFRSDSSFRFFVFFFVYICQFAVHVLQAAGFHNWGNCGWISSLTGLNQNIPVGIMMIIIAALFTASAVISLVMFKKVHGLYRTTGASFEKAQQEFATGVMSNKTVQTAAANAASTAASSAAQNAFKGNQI
# B5: DnaJ homolog subfamily C member 5 (Homo sapiens), Q9H3Z4 (parent)
# chain: B1 chain
# partner: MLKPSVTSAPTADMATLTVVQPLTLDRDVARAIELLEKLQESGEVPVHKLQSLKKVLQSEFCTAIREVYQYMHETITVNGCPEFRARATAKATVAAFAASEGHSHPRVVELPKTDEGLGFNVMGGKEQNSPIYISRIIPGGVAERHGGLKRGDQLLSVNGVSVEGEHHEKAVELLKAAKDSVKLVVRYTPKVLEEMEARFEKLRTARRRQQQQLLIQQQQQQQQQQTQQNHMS
# B6: DnaJ homolog subfamily C member 5 (Homo sapiens), Q9H3Z4 (parent)
# chain: B1 chain
# partner: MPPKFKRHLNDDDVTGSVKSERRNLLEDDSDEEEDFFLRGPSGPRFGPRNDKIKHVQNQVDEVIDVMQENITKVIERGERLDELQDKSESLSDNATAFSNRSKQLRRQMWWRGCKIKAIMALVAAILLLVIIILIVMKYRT
# B7: DnaJ homolog subfamily C member 5 (Homo sapiens), Q9H3Z4 (parent)
# chain: B1 chain
# partner: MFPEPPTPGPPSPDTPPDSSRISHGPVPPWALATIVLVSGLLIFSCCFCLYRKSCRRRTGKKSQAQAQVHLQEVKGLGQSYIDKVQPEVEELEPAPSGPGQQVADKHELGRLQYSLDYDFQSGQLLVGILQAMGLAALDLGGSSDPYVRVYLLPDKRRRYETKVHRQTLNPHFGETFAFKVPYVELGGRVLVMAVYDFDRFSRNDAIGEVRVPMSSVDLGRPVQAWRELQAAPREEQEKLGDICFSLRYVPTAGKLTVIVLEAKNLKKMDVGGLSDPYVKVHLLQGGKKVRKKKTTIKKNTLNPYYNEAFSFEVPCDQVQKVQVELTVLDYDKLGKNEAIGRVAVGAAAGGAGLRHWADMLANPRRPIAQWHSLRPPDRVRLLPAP
# B8: DnaJ homolog subfamily C member 5 (Homo sapiens), Q9H3Z4 (parent)
# chain: B1 chain
# partner: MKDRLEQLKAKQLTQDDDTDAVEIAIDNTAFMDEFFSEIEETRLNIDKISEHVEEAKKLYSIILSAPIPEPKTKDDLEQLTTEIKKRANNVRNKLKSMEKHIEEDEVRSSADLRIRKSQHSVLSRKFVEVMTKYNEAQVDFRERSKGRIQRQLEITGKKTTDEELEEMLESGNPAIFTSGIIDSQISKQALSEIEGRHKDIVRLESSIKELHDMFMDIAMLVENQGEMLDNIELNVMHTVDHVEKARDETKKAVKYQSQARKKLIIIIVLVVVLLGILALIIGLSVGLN
# B9: DnaJ homolog subfamily C member 5 (Homo sapiens), Q9H3Z4 (parent)
# chain: B1 chain
# partner: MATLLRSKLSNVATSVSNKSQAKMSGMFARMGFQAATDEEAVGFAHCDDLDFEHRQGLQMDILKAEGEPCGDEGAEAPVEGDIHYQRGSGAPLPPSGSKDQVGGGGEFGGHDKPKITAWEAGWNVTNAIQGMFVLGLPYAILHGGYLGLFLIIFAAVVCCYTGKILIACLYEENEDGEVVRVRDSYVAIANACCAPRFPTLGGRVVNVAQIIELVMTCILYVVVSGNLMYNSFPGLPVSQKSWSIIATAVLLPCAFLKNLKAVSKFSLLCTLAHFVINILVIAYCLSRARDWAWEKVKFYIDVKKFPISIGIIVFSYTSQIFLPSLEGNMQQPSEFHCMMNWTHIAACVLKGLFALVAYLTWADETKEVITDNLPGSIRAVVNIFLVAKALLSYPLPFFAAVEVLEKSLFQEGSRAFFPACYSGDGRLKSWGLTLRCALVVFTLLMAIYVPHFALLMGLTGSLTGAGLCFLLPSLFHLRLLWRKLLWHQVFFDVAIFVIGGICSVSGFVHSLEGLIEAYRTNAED
# B10: DnaJ homolog subfamily C member 5 (Homo sapiens), Q9H3Z4 (parent)
# chain: B1 chain
# partner: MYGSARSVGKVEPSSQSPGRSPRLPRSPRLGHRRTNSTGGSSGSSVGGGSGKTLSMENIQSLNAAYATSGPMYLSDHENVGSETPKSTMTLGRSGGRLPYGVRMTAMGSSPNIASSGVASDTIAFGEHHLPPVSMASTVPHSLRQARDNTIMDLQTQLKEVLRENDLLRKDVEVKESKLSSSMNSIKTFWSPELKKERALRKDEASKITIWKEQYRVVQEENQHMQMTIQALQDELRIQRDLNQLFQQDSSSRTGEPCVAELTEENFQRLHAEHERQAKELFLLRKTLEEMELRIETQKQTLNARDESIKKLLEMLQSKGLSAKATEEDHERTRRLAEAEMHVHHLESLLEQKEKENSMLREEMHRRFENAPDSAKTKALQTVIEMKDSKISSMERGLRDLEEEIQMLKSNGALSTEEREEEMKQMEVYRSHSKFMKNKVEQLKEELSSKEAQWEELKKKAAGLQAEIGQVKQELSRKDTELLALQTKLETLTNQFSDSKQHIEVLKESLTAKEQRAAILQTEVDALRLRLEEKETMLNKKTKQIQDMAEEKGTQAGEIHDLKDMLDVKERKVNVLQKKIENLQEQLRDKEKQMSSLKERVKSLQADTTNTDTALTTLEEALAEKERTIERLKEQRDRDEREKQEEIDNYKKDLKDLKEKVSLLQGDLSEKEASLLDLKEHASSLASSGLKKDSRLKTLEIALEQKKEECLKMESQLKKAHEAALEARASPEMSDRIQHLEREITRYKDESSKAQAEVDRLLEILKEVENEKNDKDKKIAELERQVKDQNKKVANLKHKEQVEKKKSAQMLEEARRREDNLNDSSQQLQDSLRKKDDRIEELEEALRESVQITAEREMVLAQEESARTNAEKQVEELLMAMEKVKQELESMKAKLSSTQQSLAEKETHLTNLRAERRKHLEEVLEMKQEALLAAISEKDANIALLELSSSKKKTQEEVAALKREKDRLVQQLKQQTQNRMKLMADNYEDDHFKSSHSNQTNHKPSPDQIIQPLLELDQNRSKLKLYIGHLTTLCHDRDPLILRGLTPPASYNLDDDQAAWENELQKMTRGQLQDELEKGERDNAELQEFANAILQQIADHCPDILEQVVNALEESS
# Variants of: B1
# Conditions: with zdh17_human ZDHHC17, Q8IUH5
# Chain of zdh17_human ZDHHC17, Q8IUH5 (Q8IUH5 whole entry): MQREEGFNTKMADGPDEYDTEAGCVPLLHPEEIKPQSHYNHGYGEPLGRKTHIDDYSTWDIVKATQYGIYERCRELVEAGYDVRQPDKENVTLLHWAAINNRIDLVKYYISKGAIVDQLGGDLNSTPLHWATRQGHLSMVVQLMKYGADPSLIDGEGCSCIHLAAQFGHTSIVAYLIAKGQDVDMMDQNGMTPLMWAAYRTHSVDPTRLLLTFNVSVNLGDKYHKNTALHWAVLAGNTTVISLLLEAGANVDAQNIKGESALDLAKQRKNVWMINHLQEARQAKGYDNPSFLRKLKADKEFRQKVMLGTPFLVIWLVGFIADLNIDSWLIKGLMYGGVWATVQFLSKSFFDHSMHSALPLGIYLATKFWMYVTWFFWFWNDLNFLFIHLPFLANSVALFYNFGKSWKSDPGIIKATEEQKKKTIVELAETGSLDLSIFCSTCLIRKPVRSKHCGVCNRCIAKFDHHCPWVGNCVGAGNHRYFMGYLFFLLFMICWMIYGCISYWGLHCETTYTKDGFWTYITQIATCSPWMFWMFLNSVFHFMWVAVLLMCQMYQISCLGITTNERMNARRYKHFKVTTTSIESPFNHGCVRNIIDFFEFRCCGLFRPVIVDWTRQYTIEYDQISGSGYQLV
row,Variant,effect of a mutation on the interaction
1,L115R,increasing interaction strength

# Variants of: B1
# Conditions: with ap2b1_human AP2B1, P63010
# Chain of ap2b1_human AP2B1, P63010 (P63010 whole entry): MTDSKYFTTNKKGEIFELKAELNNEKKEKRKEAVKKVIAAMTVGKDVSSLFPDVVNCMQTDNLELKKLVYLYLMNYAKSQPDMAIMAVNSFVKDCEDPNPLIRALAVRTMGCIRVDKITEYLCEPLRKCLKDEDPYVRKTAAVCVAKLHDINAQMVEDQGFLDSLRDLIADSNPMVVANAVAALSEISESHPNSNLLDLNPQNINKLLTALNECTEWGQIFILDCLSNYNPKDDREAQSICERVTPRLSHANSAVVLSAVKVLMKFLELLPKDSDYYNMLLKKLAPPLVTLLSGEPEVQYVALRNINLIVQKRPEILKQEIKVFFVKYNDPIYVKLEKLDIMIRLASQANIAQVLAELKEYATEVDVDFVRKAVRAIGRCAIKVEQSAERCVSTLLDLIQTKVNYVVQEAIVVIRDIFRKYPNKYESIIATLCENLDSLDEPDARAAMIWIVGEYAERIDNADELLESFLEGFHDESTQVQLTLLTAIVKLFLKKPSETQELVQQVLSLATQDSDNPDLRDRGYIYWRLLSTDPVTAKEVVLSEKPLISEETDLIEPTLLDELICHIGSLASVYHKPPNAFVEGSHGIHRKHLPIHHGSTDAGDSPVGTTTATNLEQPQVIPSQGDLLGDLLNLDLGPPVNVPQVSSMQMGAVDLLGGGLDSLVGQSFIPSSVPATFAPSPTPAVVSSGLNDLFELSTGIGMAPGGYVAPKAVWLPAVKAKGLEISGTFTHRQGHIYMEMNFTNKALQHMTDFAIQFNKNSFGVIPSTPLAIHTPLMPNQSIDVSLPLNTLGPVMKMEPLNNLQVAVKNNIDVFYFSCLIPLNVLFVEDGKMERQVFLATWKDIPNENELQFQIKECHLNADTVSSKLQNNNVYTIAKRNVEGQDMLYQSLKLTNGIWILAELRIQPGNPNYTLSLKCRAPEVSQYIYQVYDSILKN
row,Variant,effect of a mutation on the interaction
1,L115R,with no effect

# Variants of: B1
# Conditions: with caps1_human CADPS
row,Variant,effect of a mutation on the interaction
1,L115R,with no effect

# Variants of: B1
# Conditions: with cskp_human CASK
row,Variant,effect of a mutation on the interaction
1,L115R,increasing interaction strength

# Variants of: B1
# Conditions: with lipa1_human PPFIA1, Q13136
row,Variant,effect of a mutation on the interaction
1,L115R,with no effect

# Variants of: B1
# Conditions: with lipa4_human PPFIA4, O75335
row,Variant,effect of a mutation on the interaction
1,L115R,increasing interaction strength

# Variants of: B1
# Conditions: with rabx5_human RABGEF1, Q9UJ41
row,Variant,effect of a mutation on the interaction
1,L115R,decreasing interaction strength

# Variants of: B1
# Conditions: with sh3g3_human SH3GL3, Q99963
# Chain of sh3g3_human SH3GL3, Q99963 (Q99963 whole entry): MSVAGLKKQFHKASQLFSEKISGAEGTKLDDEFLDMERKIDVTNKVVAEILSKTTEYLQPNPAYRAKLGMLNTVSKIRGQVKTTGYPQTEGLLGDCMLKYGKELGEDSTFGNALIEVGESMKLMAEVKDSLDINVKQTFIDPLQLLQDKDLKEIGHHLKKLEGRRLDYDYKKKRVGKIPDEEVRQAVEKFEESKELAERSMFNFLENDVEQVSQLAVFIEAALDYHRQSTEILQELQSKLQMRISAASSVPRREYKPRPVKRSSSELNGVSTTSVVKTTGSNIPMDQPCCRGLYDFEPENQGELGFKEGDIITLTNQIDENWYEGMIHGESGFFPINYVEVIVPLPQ
row,Variant,effect of a mutation on the interaction
1,L115R,with no effect

# Variants of: B1
# Conditions: with snp29_human SNAP29, O95721
# Chain of snp29_human SNAP29, O95721 (O95721 whole entry): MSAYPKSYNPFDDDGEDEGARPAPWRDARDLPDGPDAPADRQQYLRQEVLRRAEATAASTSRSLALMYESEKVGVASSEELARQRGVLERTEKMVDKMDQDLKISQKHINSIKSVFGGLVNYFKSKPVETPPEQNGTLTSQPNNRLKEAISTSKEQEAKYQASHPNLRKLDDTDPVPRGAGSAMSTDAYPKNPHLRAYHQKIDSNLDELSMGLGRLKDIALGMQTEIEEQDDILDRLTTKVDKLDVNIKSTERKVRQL
row,Variant,effect of a mutation on the interaction
1,L115R,with no effect

# Variants of: B1
# Conditions: with syua_human SNCA
row,Variant,effect of a mutation on the interaction
1,L115R,with no effect

# Variants of: B1
# Conditions: with zdh17_human ZDHHC17, Q8IUH5
# Remark: another data set of the same source
row,Variant,effect of a mutation on the interaction
1,L115R,decreasing interaction strength

# Variants of: B1
# Conditions: with grm8_human GRM8, O00222
# Chain of grm8_human GRM8, O00222 (O00222 whole entry): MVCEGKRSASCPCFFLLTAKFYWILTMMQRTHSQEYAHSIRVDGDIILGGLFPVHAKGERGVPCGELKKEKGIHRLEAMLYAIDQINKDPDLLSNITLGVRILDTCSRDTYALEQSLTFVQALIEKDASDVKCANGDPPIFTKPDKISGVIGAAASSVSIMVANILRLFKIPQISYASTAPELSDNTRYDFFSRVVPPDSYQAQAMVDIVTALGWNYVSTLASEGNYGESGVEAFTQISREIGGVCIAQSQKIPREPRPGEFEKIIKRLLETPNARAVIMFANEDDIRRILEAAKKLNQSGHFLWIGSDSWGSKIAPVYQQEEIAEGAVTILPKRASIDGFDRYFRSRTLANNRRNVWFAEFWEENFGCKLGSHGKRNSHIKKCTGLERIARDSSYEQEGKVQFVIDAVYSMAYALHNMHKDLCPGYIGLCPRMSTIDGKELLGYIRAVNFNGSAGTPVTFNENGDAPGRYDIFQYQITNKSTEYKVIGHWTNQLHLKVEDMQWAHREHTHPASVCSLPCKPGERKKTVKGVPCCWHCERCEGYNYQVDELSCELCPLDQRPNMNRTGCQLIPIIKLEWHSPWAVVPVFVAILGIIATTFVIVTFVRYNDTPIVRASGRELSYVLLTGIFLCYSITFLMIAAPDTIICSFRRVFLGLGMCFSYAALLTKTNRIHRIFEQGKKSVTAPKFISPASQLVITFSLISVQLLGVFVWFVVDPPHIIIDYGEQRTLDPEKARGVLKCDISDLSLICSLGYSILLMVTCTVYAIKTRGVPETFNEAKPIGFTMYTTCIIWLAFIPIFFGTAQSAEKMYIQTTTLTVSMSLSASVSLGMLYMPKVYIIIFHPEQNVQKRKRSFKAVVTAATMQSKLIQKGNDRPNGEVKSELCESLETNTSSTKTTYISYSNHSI
row,Variant,effect of a mutation on the interaction
1,L115R,decreasing interaction strength

# Variants of: B1
# Conditions: with nrx3b_human NRXN3, Q9HDB5
row,Variant,effect of a mutation on the interaction
1,L115R,decreasing interaction strength

# Variants of: B1
# Conditions: with syph_human SYP
row,Variant,effect of a mutation on the interaction
1,L115R,decreasing interaction strength

# Variants of: B1
# Conditions: with syt1_human SYT1, P21579
# Chain of syt1_human SYT1, P21579 (P21579 whole entry): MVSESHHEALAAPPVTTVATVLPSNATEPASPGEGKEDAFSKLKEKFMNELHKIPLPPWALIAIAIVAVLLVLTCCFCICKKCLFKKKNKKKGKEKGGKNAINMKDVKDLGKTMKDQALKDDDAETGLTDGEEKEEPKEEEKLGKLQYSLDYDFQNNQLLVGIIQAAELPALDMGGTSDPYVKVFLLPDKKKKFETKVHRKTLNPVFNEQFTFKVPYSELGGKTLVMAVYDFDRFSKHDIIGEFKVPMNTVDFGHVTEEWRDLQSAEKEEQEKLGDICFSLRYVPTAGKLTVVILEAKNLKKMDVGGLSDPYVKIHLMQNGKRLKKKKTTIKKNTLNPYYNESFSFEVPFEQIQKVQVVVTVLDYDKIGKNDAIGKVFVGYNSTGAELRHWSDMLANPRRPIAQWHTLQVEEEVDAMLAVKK
row,Variant,effect of a mutation on the interaction
1,L115R,decreasing interaction strength

# Variants of: B1
# Conditions: with vamp2_human VAMP2, P63027
# Chain of vamp2_human VAMP2, P63027 (P63027 whole entry): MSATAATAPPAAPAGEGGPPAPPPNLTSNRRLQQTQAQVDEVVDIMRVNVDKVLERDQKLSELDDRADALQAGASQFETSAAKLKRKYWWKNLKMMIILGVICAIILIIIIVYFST
row,Variant,effect of a mutation on the interaction
1,L115R,decreasing interaction strength

# Variants of: B1
# Conditions: with vamp3_human VAMP3, Q15836
# Chain of vamp3_human VAMP3, Q15836 (Q15836 whole entry): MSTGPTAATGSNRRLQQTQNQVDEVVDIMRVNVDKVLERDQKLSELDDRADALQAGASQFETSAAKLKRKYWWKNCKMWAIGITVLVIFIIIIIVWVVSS
row,Variant,effect of a mutation on the interaction
1,L115R,decreasing interaction strength

# Variants of: B1
# Conditions: with ap2a1_human AP2A1, O95782
# Chain of ap2a1_human AP2A1, O95782 (O95782 whole entry): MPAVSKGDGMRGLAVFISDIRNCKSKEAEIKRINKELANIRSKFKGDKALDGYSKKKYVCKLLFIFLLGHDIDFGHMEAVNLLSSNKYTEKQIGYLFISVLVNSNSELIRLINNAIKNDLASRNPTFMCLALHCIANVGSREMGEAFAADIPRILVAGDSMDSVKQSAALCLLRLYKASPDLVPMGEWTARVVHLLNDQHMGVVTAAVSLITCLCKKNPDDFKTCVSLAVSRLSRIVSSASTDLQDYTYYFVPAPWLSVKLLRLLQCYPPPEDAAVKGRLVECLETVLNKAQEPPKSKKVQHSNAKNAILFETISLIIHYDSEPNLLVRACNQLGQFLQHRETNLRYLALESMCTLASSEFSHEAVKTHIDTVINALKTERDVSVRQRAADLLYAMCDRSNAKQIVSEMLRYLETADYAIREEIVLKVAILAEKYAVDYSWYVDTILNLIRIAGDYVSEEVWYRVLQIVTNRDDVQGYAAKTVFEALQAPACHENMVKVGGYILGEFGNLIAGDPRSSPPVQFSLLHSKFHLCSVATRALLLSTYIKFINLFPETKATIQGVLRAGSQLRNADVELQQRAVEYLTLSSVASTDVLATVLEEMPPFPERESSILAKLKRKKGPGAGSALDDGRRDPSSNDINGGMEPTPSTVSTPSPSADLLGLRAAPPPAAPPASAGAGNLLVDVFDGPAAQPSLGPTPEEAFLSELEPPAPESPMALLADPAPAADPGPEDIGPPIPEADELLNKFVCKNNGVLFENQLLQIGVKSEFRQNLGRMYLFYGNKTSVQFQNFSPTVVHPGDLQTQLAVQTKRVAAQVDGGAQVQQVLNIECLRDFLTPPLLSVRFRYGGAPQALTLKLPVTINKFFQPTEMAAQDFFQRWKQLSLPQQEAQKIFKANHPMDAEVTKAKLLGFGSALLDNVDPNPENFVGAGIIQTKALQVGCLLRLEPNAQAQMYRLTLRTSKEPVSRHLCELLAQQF
row,Variant,effect of a mutation on the interaction
1,L115R,with no effect

# Variants of: B1
# Conditions: with ap2s1_human AP2S1, P53680
# Chain of ap2s1_human AP2S1, P53680 (P53680 whole entry): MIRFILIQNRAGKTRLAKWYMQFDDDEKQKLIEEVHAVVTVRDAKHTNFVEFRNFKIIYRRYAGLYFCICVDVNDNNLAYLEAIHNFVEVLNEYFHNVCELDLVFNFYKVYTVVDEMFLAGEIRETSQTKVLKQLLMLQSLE
row,Variant,effect of a mutation on the interaction
1,L115R,with no effect

# Variants of: B2
# Conditions: with cadm1_human CADM1, Q9BY67
row,Variant,effect of a mutation on the interaction
1,L115R,decreasing interaction strength

# Variants of: B3
# Conditions: with vglu1_human SLC17A7, Q9P2U7
row,Variant,effect of a mutation on the interaction
1,L115R,with no effect

# Variants of: B4
# Conditions: with scam1_human SCAMP1, O15126
row,Variant,effect of a mutation on the interaction
1,L115R,with no effect

# Variants of: B5
# Conditions: with lin7a_human LIN7A
row,Variant,effect of a mutation on the interaction
1,L115R,with no effect

# Variants of: B6
# Conditions: with vamp4_human VAMP4, O75379
row,Variant,effect of a mutation on the interaction
1,L115R,with no effect

# Variants of: B7
# Conditions: with syt5_human SYT5, O00445
row,Variant,effect of a mutation on the interaction
1,L115R,with no effect

# Variants of: B8
# Conditions: with stx3_human STX3, Q13277
row,Variant,effect of a mutation on the interaction
1,L115R,with no effect

# Variants of: B9
# Conditions: with viaat_human SLC32A1, Q9H598
row,Variant,effect of a mutation on the interaction
1,L115R,with no effect

# Variants of: B10
# Conditions: with rb6i2_human ERC1, Q8IUD2
row,Variant,effect of a mutation on the interaction
1,L115R,with no effect
